From patent US20160274129 come the findings set out here.

“And” between values parts separate entries of the source, which are not always exact repeats. Identical values can stand only once.

Data set [1] has as its target T1, α-fructosyl-valyl-histidine.
T1 chain: VH

Data set [2] has as its target T2, α-fructosyl-valyl-histidyl-leucyl-threonyl-proryl-glutamic acid.
T2 chain: VHLTPE

Data set [3] deals with T3, α-fructosyl-valyl-histidyl-leucine.
T3 chain: VHL

In data set [4] the target is T4, α-fructosyl-valyl-histidyl-leucyl-threonine.
T4 chain: VHLT

Data set [5] concerns the target T5, α-fructosyl-valyl-histidyl-leucyl-threonyl-proline.
T5 chain: VHLTP

Data set [6] has as its target T6, α-fructosyl-valyl-histidyl-leucyl-threonyl-proryl-glutamyl-glutamyl-lysine.
T6 chain: VHLTPEEK

The target of data set [7] is T7, α-fructosyl-valyl-histidyl-leucyl-threonyl-proryl-glutamyl-glutamyl-lysyl-seryl-alanyl-valyl-threonyl-alanyl-leucyl-tryptophyl-glycine.
T7 chain: VHLTPEEKSAVTALWG

B1: CFP-T7-H21 (protein)
chain: MTSNRADTRVIVVGGGGTIGSSTALHLVRSGYAPANITVLDTFEIPSAQSAGHDLNKIMGIDLRNKVDLQMSLEARQMWKEDELFQPFFHNTGRMDCEHTPEGIEKLKKLYQRLHDAGAGLEKTHAWLDNEDEILSKMPLLQRDQIQGWKAIWSQDGGWLAAAKAINAIGQFLKERGVKFGFGGAGSFKQPLFDDEGTTCIGVETADGTKYYADKVVLAAGAWSPTLVDLEDQCCSKAWVYAHIQLTPEEAAEYKGVPVVYNGEFGFFFEPDEFGVIKVCDEFPGFSRFKEHQPYGAPSPKRISVPRSHAKHPTDTYPDASEVSIKKAIATFLPRFQDKELFNRALCWCTDTADAALLMCEHPKWKNFILATGDSGHSFKILPNVGKYVVELIEGRLPEEMAYQWRWRPGGDALKSRRAAPPKDLADMPGWKHDPKL
B1 returned a Specific activity (U/mg), 1 mM αFVH, purified enzyme in data set [1] of 4.05 U/mg. In data set [2], the Specific activity (U/mg), 1 mM αF6P, purified enzyme stood at 0.795 U/mg; the αF6P oxidation activity (crude enzyme; αFVH oxidation activity = 100) (relative (αFVH = 100)) was determined as 20.8; the αF6P/αFV was 0.0377 and 0.0372; the αF6P/αFVH was 0.196 and 0.208.

B2: CFP-T7-H35 (protein)
chain: MTSNRADTRVIVVGGGGTIGSSTALHLVRSGYAPANITVLDTFEIPSAQSAGHDLNKIMGIDHRNKVDLQMSLEARQMWKEDELFQPFFHNTGRMDCEHTPKGIEKLKKLYQKLHDAGAGLEKTHAWLDNEDEILSKMPLLQRDQIQGWKAIWSQDGGWLAAAKAINAIGQFLKERGVKFGFGGAGSFKQPLFDDEGTTCIGVETADGTKYYADKVVLAAGAWSPTLVDLEDQCCSKAWVYAHIQLTPEEAAEYKGVPVVYNGEFGFFFEPDEFGVIKVCDEFPGFSRFKEHQPYGAPSPKRISVPRSHAKHPTDTYPDASEVSIKKAIATFLPRFQDKELFNRALCWCTDTADSALLMCEHPKWKNFILATGDSGHSFKILPNVGKYVVELIEGRLPEEMAYQWRWRPGGDALKSRRAAPPKDLADMPGWKHDPKL
In the case of B2, in data set [1], the Specific activity (U/mg), 1 mM αFVH, purified enzyme worked out at 1.9 U/mg. In data set [3], this protein gave a Specific activity (U/mg), 1 mM αF3P, purified enzyme of 1.24 U/mg. This protein also gave a Specific activity (U/mg), 1 mM αF4P, purified enzyme in data set [4] of 0.352 U/mg. The Specific activity (U/mg), 1 mM αF5P, purified enzyme in data set [5] came to 2.15 U/mg. In data set [2], the Specific activity (U/mg), 1 mM αF6P, purified enzyme stood at 4.27 U/mg; the “fold of specific activity on αF6P against FAOAo2 (Amadoriase 25/Comparative Example 2)” value is listed as 2 times (Amadoriase 26/Comparative Example 3) to 1,940 times (Amadoriase 25/Comparative Example 2); the αF6P oxidation activity ratio (crude enzyme; CFP-T7-H28 = 100) (relative (CFP-T7-H28 = 100)) came out at 206; the αF6P/αFV turned out to be 0.323. The same protein came in with a αF6P/αFVH in data set [2] of 2.25. In data set [6], this protein returned a Specific activity (U/mg), 1 mM αF8P, purified enzyme of 1.59 U/mg. Further, in data set [7], the Specific activity (U/mg), 1 mM αF16P, purified enzyme came out at 0.247 U/mg.

B3: CFP-T7 (protein)
chain: MTSNRADTRVIVVGGGGTIGSSTALHLVRSGYAPANITVLDTFEIPSAQSAGHDLNKIMGIRLRNKVDLQMSLEARQMWKEDELFQPFFHNTGRMDCEHTPEGIEDLKKQYQALHDAGAGLEKTHAWLDNEDEILSKMPLLQRDQIQGWKAIWSQDGGWLAAAKAINAIGQFLKERGVKFGFGGAGSFKQPLFDDEGTTCIGVETADGTKYYADKVVLAAGAWSPTLVDLEDQCCSKAWVYAHIQLTPEEAAEYKGVPVVYNGEFGFFFEPDEFGVIKVCDEFPGFSRFKEHQPYGAPSPKRISVPRSHAKHPTDTYPDASEVSIKKAIATFLPRFQDKELFNRALCWCTDTADAALLMCEHPKWKNFILATGDSGHSFKILPNVGKYVVELIEGRLPEEMAYQWRWRPGGDALKSRRAAPPKDLADMPGWKHDPKL
Protein B3 displayed a Specific activity (U/mg), 1 mM αFVH, purified enzyme in data set [1] of 16.5 U/mg. The same protein had a Specific activity (U/mg), 1 mM αF3P, purified enzyme in data set [3] of 0 U/mg. This protein also yielded a Specific activity (U/mg), 1 mM αF4P, purified enzyme in data set [4] of 0 U/mg. In data set [5], this protein yielded a Specific activity (U/mg), 1 mM αF5P, purified enzyme of 0 U/mg. Also, in data set [2], the Specific activity (U/mg), 1 mM αF6P, purified enzyme turned out to be 0 U/mg; the αF6P oxidation activity (crude enzyme; αFVH oxidation activity = 100) (relative (αFVH = 100)) worked out at 0; the αF6P/αFV amounted to 0; the αF6P/αFVH turned out to be 0. Further, the Specific activity (U/mg), 1 mM αF8P, purified enzyme in data set [6] is 0 U/mg. Besides, in data set [7], the Specific activity (U/mg), 1 mM αF16P, purified enzyme came to 0 U/mg.

B4: CFP-T7-62D (protein)
chain: MTSNRADTRVIVVGGGGTIGSSTALHLVRSGYAPANITVLDTFEIPSAQSAGHDLNKIMGIDLRNKVDLQMSLEARQMWKEDELFQPFFHNTGRMDCEHTPEGIEDLKKQYQALHDAGAGLEKTHAWLDNEDEILSKMPLLQRDQIQGWKAIWSQDGGWLAAAKAINAIGQFLKERGVKFGFGGAGSFKQPLFDDEGTTCIGVETADGTKYYADKVVLAAGAWSPTLVDLEDQCCSKAWVYAHIQLTPEEAAEYKGVPVVYNGEFGFFFEPDEFGVIKVCDEFPGFSRFKEHQPYGAPSPKRISVPRSHAKHPTDTYPDASEVSIKKAIATFLPRFQDKELFNRALCWCTDTADAALLMCEHPKWKNFILATGDSGHSFKILPNVGKYVVELIEGRLPEEMAYQWRWRPGGDALKSRRAAPPKDLADMPGWKHDPKL
B4: the Specific activity (U/mg), 1 mM αFVH, purified enzyme in data set [1] was 1.62 U/mg. In data set [2], the Specific activity (U/mg), 1 mM αF6P, purified enzyme turned out to be 0.018 U/mg; the “fold of specific activity on αF6P against PnFX (Amadoriase 26/Comparative Example 3)” value is 2 times (Amadoriase 26/Comparative Example 3) to 1,940 times (Amadoriase 25/Comparative Example 2); the αF6P/αFV came out at 0.00113; the αF6P/αFVH was 0.00132.

B5: CFP-T7-H20 (protein)
chain: MTSNRADTRVIVVGGGGTIGSSTALHLVRSGYAPANITVLDTFEIPSAQSAGHDLNKIMGIDLRNKVDLQMSLEARQMWKEDELFQPFFHNTGRMDCEHTPEGIEKLKKLYQKLHDAGAGLEKTHAWLDNEDEILSKMPLLQRDQIQGWKAIWSQDGGWLAAAKAINAIGQFLKERGVKFGFGGAGSFKQPLFDDEGTTCIGVETADGTKYYADKVVLAAGAWSPTLVDLEDQCCSKAWVYAHIQLTPEEAAEYKGVPVVYNGEFGFFFEPDEFGVIKVCDEFPGFSRFKEHQPYGAPSPKRISVPRSHAKHPTDTYPDASEVSIKKAIATFLPRFQDKELFNRALCWCTDTADAALLMCEHPKWKNFILATGDSGHSFKILPNVGKYVVELIEGRLPEEMAYQWRWRPGGDALKSRRAAPPKDLADMPGWKHDPKL
Protein B5 displayed a Specific activity (U/mg), 1 mM αFVH, purified enzyme in data set [1] of 4.28 U/mg. Also, in data set [2], the Specific activity (U/mg), 1 mM αF6P, purified enzyme is 0.85 U/mg; the αF6P oxidation activity (crude enzyme; αFVH oxidation activity = 100) (relative (αFVH = 100)) was determined as 20.5; the αF6P/αFV was 0.0377 and 0.0389; the αF6P/αFVH is 0.205 and 0.198.
